Measurements published in the RNAGym collection of RNA variant scans (doi:10.1021/acssynbio.7b00057).

B1: Pistol ribozyme (parent)
chain: GGGUCGUUGUUCCAUAAUCGCGUGGAUAUGGCACGCAAGUUUCUACCGGGCACCGUAAAUGUCCGACUGGAGCCGUUCGGGCGGCUAUAAACAGACCUCAGGCCCGAAGCGUGGCGGCACCUGCCGCCGGUGGUAAAAAAGAUCGGAAGAGCACACGUCU

Variants of: B1
Assay: aptazyme ON/OFF ratio, guanine; higher = stronger switching; co-transcriptional cleavage with and without guanine

Variant	aptazyme ON/OFF ratio
U7C U10A U11C C12U C13A	1.05
U7C U8G U10G U11C C12A C13G	1.1
U7C U8G U10G U11C C12A C13U	1.42
U7C U8G U10G U11C C12A C13A	1.19
U7C U8G U10C U11C C12G C13U	1.24
U7C U8G U10C U11C C12G C13A	1.14
U7C U8G U10C U11C C12G C13G	1.13
U7C U10G U11A	1.1
U7C U10G U11C	1.1
U7C U8G U10G U11A C12U C13G	1.11
U7C U8G U10G U11A C12U C13A	1.23
U7C U8G U10G U11A C12U C13U	1.23
U7C U8G U11A C12U	1.15
U7C U8G U11A C12A	1.14
U7C U8G U11A C12G	1.1
U7C U8G U10G C12G C13U	1.29
U7C U8G U10G C12G C13G	1.14
U7C U8G U10G C12G C13A	1.11
U7C U8G U10C U11G C12U	1.97
U7C U8G U10C U11G C12G	1.32
U7C U8G U10C U11G C12A	2.9
U7C U8G U11G C12A C13G	1.08
U7C U8G U11G C12A C13A	1.1
U7C U8G U11G C12A C13U	1.18

Variant	aptazyme ON/OFF ratio
U7C U8G U10G U11G C12A	1.28
U7C U8G U10G U11G C12U	1.21
U7C U8G U10G U11G C12G	1.21
U7C U10C U11A C12G C13A	1.15
U7C U10C U11A C12G C13G	1.15
U7C U10C U11A C12G C13U	1.15
U7C U10C U11C	1.74
U7C U10C U11G	1.21
U7C U10C U11A	2.11
U7C U8G U10C U11A C12G C13A	1.07
U7C U8G U10C U11A C12G C13G	1.12
U7C U8G U10C U11A C12G C13U	1.08
U7C U10G C12A	1.11
U7C U10G C12G	1.18
U7C U10G C12U	1.32
U7C U10A U11A C12A C13A	1.17
U7C U10A U11A C12A C13U	1.21
U7C U10A U11A C12A C13G	1.11
U7C U10G C12A C13G	1.14
U7C U10G C12A C13U	1.15
U7C U10G C12A C13A	1.15
U7C U10G U11C C12A C13A	1.21
U7C U10G U11C C12A C13G	1.11
U7C U10G U11C C12A C13U	1.18

Variant	aptazyme ON/OFF ratio
U7C U10G C13U	1.39
U7C U10G C13G	1.16
U7C U10G C13A	1.2
U7C U10C U11G C12G	1.3
U7C U10C U11G C12A	1.35
U7C U10C U11G C12U	1.18
U7C U8G U10C U11A C12U	3.58
U7C U8G U10C U11A C12G	1.2
U7C U8G U10C U11A C12A	2.52
U7C U8G U11G C12G C13U	1.05
U7C U8G U11G C12G C13G	1.08
U7C U8G U11G C12G C13A	1.07
U7C U10C U11A C12U C13U	1.22
U7C U10C U11A C12U C13A	1.28
U7C U10C U11A C12U C13G	1.32
U7C U10G C12G C13A	1.17
U7C U10G C12G C13U	1.18
U7C U10G C12G C13G	1.13
U7C U10A U11G C12U C13A	1.35
U7C U10A U11G C12U C13G	1.2
U7C U10A U11G C12U C13U	1.5
U7C U8G U10C U11A C13G	1.16
U7C U8G U10C U11A C13U	3.36
U7C U8G U10C U11A C13A	1.32

Variant	aptazyme ON/OFF ratio
U7C U8G U10G U11A C12G C13G	1.21
U7C U8G U10G U11A C12G C13U	1.14
U7C U8G U10G U11A C12G C13A	1.1
U7C U8G U10G U11A C13A	1.18
U7C U8G U10G U11A C13G	1.13
U7C U8G U10G U11A C13U	1.28
U7C U10A U11C C12G C13G	1.31
U7C U10A U11C C12G C13U	1.22
U7C U10A U11C C12G C13A	1.2
U7C U10A C12G C13U	1.23
U7C U10A C12G C13A	1.18
U7C U10A C12G C13G	1.14
U7C U10G U11A C12A C13G	1.17
U7C U10G U11A C12A C13A	1.2
U7C U10G U11A C12A C13U	1.09
U7C U10C C13U	2.47
U7C U10C C13G	1.28
U7C U10C C13A	1.11
U7C U10A C12U C13A	1.19
U7C U10A C12U C13G	1.14
U7C U10A C12U C13U	1.35
U7C U8G U10C U11G	2
U7C U8G U10C U11A	2.93
U7C U8G U10C U11C	3.48

Variant	aptazyme ON/OFF ratio
U7C U8G U11A C12G C13G	1.11
U7C U8G U11A C12G C13A	1.11
U7C U8G U11A C12G C13U	1.09
U7C U8G U10C U11C C13A	1.03
U7C U8G U10C U11C C13G	1.09
U7C U8G U10C U11C C13U	1.11
U7C U10G U11A C12G C13G	1.15
U7C U10G U11A C12G C13U	1.22
U7C U10G U11A C12G C13A	1.09
U7C U8G U10C U11G C12U C13A	1.24
U7C U8G U10C U11G C12U C13G	1.17
U7C U8G U10C U11G C12U C13U	1.25
U7C U10C U11C C13G	1.14
U7C U10C U11C C13U	1.08
U7C U10C U11C C13A	1.07
U7C U10C U11C C12G C13G	1.18
U7C U10C U11C C12G C13A	1.25
U7C U10C U11C C12G C13U	1.24
U7C U8G U10C U11A C12U C13U	1.24
U7C U8G U10C U11A C12U C13A	1.15
U7C U8G U10C U11A C12U C13G	1.11
U7C U8G U11C C12U C13A	1.35
U7C U8G U11C C12U C13U	1.35
U7C U8G U11C C12U C13G	1.19

Variant	aptazyme ON/OFF ratio
U7C U10G U11A C13U	1.08
U7C U10G U11A C13A	1.1
U7C U10G U11A C13G	1.18
U7C U8G U10G	1.22
U7C U8G U10G U11C	1.09
U7C U8G U10G U11G	1.63
U7C U8G U10G U11A	1.17
U7C U10G C12U C13A	1.25
U7C U10G C12U C13G	1.11
U7C U10G C12U C13U	1.24
U7C U8G U10G U11C C13G	1.2
U7C U8G U10G U11C C13A	1.24
U7C U8G U10G U11C C13U	1.14
U7C U10C U11G C13G	1.17
U7C U10C U11G C13A	0.947
U7C U10C U11G C13U	1.74
U7C U10C U11A C12A C13A	1.49
U7C U10C U11A C12A C13U	1.3
U7C U10C U11A C12A C13G	1.26
U7C U10A U11G C12A	1.29
U7C U10A U11G C12G	1.18
U7C U10A U11G C12U	1.19
U7C U10C U11C C12A C13A	1.25
U7C U10C U11C C12A C13G	1.32

Variant	aptazyme ON/OFF ratio
U7C U10C U11C C12A C13U	1.2
U7C U10C C12U C13U	1.36
U7C U10C C12U C13A	1.3
U7C U10C C12U C13G	1.28
U7C U8G U10G U11A C12A C13U	1.2
U7C U8G U10G U11A C12A C13G	1.13
U7C U8G U10G U11A C12A C13A	1.11
U7C U8G U10G C12A C13A	1.24
U7C U8G U10G C12A C13U	1.33
U7C U8G U10G C12A C13G	1.09
U7C U10A U11A C12G C13U	1.17
U7C U10A U11A C12G C13A	1.11
U7C U10A U11A C12G C13G	1.33
U7C U8G U11A C12U C13A	1.09
U7C U8G U11A C12U C13U	1.12
U7C U8G U11A C12U C13G	1.09
U7C U8G U10C C12U C13U	2.3
U7C U10C C12A C13A	1.37
U7C U10C C12A C13G	1.18
U7C U10C C12A C13U	1.34
U7C U8G U11C C13U	1.36
U7C U8G U11C C13G	1.12
U7C U8G U11C C13A	1.3
